Here are results for one molecule from US20110250284A1, “Nanoparticles for Use as Synthetic Platelets and Therapeutic Agent Delivery Vehicles” (priority 2008, published 2011).

The assay relates to NSCs. Put plainly: NSC behavior cultured near hydrogels with CNTF delivery component. The following applies: seven days. Type of assay: cell-based. As to the method: NSCs were positive for green fluorescent protein (GFP) and were maintained in high glucose DMEM/F12 (1:1) supplemented with 20 ng/mL mouse epidermal growth factor (EGF), N-2, B-27, penicillin/streptomycin, and L-glutamine.
To test the response of NSCs cultured near but not directly on or within hydrogels with a CNTF delivery component, NSCs were seeded as neurospheres in chamber slides at a concentration of 5×10^5 cells/mL. A hydrogel containing acrylated nanoparticles encapsulating an estimated 10 ng of CNTF was added to the culture medium. In other experiments a hydrogel containing either blank (BSA-only) nanoparticles, no nanoparticles, or unencapsulated CNTF at 10 ng/mL was added, and no hydrogel was added in the negative control. Throughout the seven days of the experiment, the migration of NSCs out of the neurospheres was measured using the fluorescence of the GFP NSCs. At the end of seven days, all hydrogels were removed. Cells were fixed for analysis in 10% formalin for 1 hour and rinsed in 1× PBS. Differentiation was quantified by immunocytochemistry as described below.
Samples were blocked (3% normal goat serum, 5% BSA, 0.3% TritonX-100) for 1 hour, then rinsed and incubated with primary antibodies against mouse β-III-tubulin (B3T; Promega; 1:1000), mouse nestin (BD Biosciences; 1:200), rabbit glial fibrillary acidic protein (GFAP; Sigma; 1:160), rabbit oligodendrocyte transcription factor 1 (Olig1; Chemicon; 1:200), or caspase-3 (Sigma, 1:10) for 2 hours. They were then rinsed and incubated with species-specific Alexa Fluor 647 secondary antibodies (Molecular Probes; 1:200) for 1 hour, and rinsed again. Cells in chamber slides were also stained with DAPI (1:35000) for 5 minutes, rinsed again, and stored in 1× PBS at 4° C. […]
The slides were viewed using a Zeiss Axiovert 200 microscope with a Zeiss Mrc camera, and images were captured through Axiovert 4.0 software. Expression of each marker was quantified by the ratio of the area of fluorescence for each marker to the area of fluorescence for the GFP labeling. Results are expressed as mean±coefficient of variation.

B1: CNTF: Recombinant human ciliary neurotrophic factor with BSA carrier (R&D Systems) (protein, UniProt P26441 1-200, looked up)
Ciliary neurotrophic factor: MAFTEHSPLTPHRRDLCSRSIWLARKIRSDLTALTESYVKHQGLNKNINLDSADGMPVASTDQWSELTEAERLQENLQAYRTFHVLLARLLEDQQVHFTPTEGDFHQAIHTLLLQVAAFAYQIEELMILLEYKIPRNEADGMPINVGDGGLFEKKLWGLKVLQELSQWTVRSIHDLRFISSHQTGIPARGSHYIANNKKM
modifications: BSA carrier
Turning to B1, the “migration of NSCs out of neurospheres” value (hydrogel added to culture medium) is recorded as “increased migration”. For the same molecule, for the setting “immunocytochemistry”, the GFAP expression entry is on record as “upregulation of GFAP” and the nestin expression entry was “downregulation of nestin”.
